Target: T1, Bovine Serum Albumin (bovine, UniProt P02769 25-607)
T1 construct: also called BSA
Test: ELISA, antigen coated on plate, phage-displayed Fab

T1 sequence (P02769 25-607 limits assumed): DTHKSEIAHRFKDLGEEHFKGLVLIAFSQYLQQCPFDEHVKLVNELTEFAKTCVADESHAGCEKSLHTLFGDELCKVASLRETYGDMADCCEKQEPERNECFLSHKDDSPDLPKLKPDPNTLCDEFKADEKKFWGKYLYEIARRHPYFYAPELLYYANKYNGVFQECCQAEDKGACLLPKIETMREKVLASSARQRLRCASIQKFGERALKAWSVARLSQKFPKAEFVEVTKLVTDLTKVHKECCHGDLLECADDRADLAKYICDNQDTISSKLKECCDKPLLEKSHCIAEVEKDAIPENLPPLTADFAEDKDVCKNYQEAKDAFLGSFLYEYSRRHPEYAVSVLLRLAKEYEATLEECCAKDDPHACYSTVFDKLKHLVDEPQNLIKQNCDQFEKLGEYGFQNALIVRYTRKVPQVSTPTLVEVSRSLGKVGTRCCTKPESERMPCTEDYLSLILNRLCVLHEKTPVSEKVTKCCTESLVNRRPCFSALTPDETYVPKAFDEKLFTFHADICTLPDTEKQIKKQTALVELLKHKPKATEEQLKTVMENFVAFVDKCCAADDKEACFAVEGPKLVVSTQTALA

B1: human Fab DDF-RuV1 (Fab, V domains shown)
VH: LEQSGAEVKKPGENLKISCEASGYNFVNHWIGWVRQMPGRGLEWMGRIYPGDSETRFSPSFQGQVTISVDKTLSTASLQWNSLKTSDSATYYCVTLGRWSSWQGGALSWGQGTRVIVSS
VL: ELTQSPDSLAVSLGERATINCKSSQSILSTSKNKNYLAWYQQKPGQPPKLLIYWASTREDGVPDRFSGSGAGTDFSLTISSLQAEDVAVYYCQQRRSWPPTFGQGTKLEIKR
  binding result: no binding

B2: human Fab DDF-RuV2 (Fab, V domains shown)
VH: LESGGGVVQPGRSLRLSCAASGFTFSTYGMHWVRQAPGKGLEWVAVVSYDGTKEYYSDSVKGRFTISRDNSKKMVYLQMNSLRAEDTAVYYCAKEPPRRGFYWYFDYWGQGTLVTVSS
VL: ELTQSPSSLSASVGDRVTITCRASQDISNYLAWFQQRPGKVPNLLIYAASTLQSGVPSRFSGSGSGTEFTLTISSLQPEDGASYYCQKYDGAPWTFGQGTKVEIKR
  binding result: no binding
